# B1: uroplakin II (natural protein, mouse, UniProt P38575 85-184, looked up)
# chain: ELVSVVDSGSGYTVTRLSAYQVTNLTPGTKYYISYRVQKGTSTESSPETPMSTLPRKNMESIGLGMARTGGMVVITVLLSVAMFLLVVGLIVALHWDARK
# B2: uroplakin Ib (natural protein, mouse, UniProt Q9Z2C6 1-260, looked up)
# chain: MAKDDSTVRCFQGLLIFGHVIVGMCGIALTAECIFFVSDQHSLYPLLEATNNDDIFGAAWIGMFVGICLFCLSVLAIVGIMKSNRKILLAYFIMMFIVYGFEVASCITAATQRDFFTTNLFLKQMLMRYQNNSPPTNDDEWKNNGVTKTWDRLMLQDHCCGVNGPSDWQKYTSAFRVENNDADYPWPRQCCVMDKLKEPLNLDACKLGVPGYYHSQGCYELISGPMDRHAWGVAWFGFAILCWTFWVLLGTMFYWSRIEY
# Columns and labels:
# [1] = target: Uroplakin Ia (Mus musculus) (UniProt Q9D132); conditions: cited from earlier work
# uroplakin Ia = target: T1, uroplakin Ia (mouse, UniProt Q9D132 1-257, high mannose glycan at its single glycosylation site); experiment: cryo-EM structure
# T1 sequence (looked up): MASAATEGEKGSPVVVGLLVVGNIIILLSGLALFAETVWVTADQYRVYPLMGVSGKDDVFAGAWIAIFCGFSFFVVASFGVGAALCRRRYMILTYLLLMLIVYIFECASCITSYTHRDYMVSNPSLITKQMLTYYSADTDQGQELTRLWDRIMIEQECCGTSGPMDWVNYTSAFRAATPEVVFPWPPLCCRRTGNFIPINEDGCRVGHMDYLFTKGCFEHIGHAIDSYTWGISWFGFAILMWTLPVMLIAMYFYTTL
# uroplakin IIIa = target: T2, uroplakin IIIa (mouse, UniProt Q9JKX8 19-287); experiment: cryo-EM structure
# T2 sequence (looked up): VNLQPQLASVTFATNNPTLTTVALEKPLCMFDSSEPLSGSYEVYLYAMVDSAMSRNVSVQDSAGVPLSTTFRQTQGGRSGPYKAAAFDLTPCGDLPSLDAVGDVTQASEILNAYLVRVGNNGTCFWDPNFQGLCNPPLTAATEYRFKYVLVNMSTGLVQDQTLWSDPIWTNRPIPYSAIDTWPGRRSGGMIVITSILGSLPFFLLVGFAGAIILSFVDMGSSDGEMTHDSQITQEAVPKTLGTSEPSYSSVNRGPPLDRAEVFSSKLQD
molecule,measurement,setting,value
FimH (from UniProt P08191),Kd,[1],0.1 µM
B1,binding result,uroplakin Ia,binds
B2,binding result,uroplakin IIIa,binds

# — article PMC2755582 (Journal of molecular biology, 2009)
